Data on 4 molecules can be found in US12214052 (HOSPITAL FOR SICK CHILDREN, dated 2025).

In the assay the target is T1, NANP 5-mer peptide (NANP5) (Plasmodium falciparum).
T1 peptide: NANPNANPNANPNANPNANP
As to the kind of experiment: ITC. (In general: ITC needs no label: the signal is the heat of the interaction.)

Positions count from the first letter of the chain named.

Procedure: Calorimetric titration experiments were performed with an Auto-iTC200 instrument (Malvern) at 25° C. Proteins were dialyzed against 20 mM Tris pH 8.0 and 150 mM sodium chloride overnight at 4° C. […] Experiments were performed at least three times and the mean and standard error of the mean were reported (FIG. 30). The experimental data were analyzed according to a 1:1 binding model by means of Origin 7.0.

B1: 1210 Fab (Fab, V domains shown)
VH: QVQLVESGGGVVQPGRSLRLSCAASGFTFSNYGMHWVRQAPGKGLEWVAVIWYDGSKKYYADSVKGRFTISRDNSKNTLYLQMNSLRAEDTAVYYCARVRDSSDYYGDAFDIWGQGTMVTVSS
VL: DIQMTQSPSTLSASVGDRVTITCRASQSISSWLAWYQQKPGKAPKLLIYKASNLESGVPLRFSGSGSGTEFTLTISSLQPDDFATYYCQQYNNYWTFGQGTKVEIK
As to B1, the binding stoichiometry is ~2.

B2: 1210_GL Fab (Fab, V domains shown)
VH: B1 VH with N31S, K57N
VL: not shown
Consider B2, for which the binding stoichiometry is ~2.

B3: 1210 H.D100Ymut_K.N92Ymut (1210_YY) Fab (Fab, V domains shown)
VH: B1 VH with D104Y
VL: B1 VL with N92Y
For the molecule B3, the binding stoichiometry is ~2.

B4: 1210_H.K56_Nrev_K.N93_Srev (1210_NS) Fab (Fab, V domains shown)
VH: B1 VH with K57N
VL: B1 VL with N93S
In the case of B4, the binding stoichiometry was ~2.
